Measurements as given in US11795460B2, “Compositions and methods for TTR gene editing and treating ATTR amyloidosis” (Intellia Therapeutics, Inc., priority 2017, dated 2023).
Strand notation (5' to 3'): a small letter for the sugar, then the base; units joined by * are phosphorothioate-linked, units joined directly phosphodiester-linked; [ ] holds rarer units or linkages, { } end groups; capitals alone tell only the bases. m = 2'-O-methyl; r = 2'-OH (RNA)

B1: G000481: TTR sgRNA modified sequence, Human, SEQ ID No. 88; guide sequence of CR003345 (nucleic acid)
guide: mU*mC*mU*rArGrArArCrUrUrUrGrArCrCrArUrCrArGrGrUrUrUrUrArGrAmGmCmUmAmGmAmAmAmUmAmGmCrArArGrUrUrArArArArUrArArGrGrCrUrArGrUrCrCrGrUrUrArUrCrAmAmCmUmUmGmAmAmAmAmAmGmUmGmGmCmAmCmCmGmAmGmUmCmGmGmUmGmCmU*mU*mU*mU
B2: G000502: TTR Cyno specific sgRNA modified sequence, SEQ ID No. 114; guide sequence of CR000689; cross homologous between mouse and cyno (nucleic acid)
guide: mA*mC*mA*rCrArArArUrArCrCrArGrUrCrCrArGrCrGrGrUrUrUrUrArGrAmGmCmUmAmGmAmAmAmUmAmGmCrArArGrUrUrArArArArUrArArGrGrCrUrArGrUrCrCrGrUrUrArUrCrAmAmCmUmUmGmAmAmAmAmAmGmUmGmGmCmAmCmCmGmAmGmUmCmGmGmUmGmCmU*mU*mU*mU

Key:
HuTTR V30M locus = assay: Liver editing in humanized transgenic V30M mouse model of hereditary ATTR amyloidosis; format: in vivo; settings: V30M humanized mice, single 1 mg/kg dose of LNP
Experimental: (§1) Unless otherwise noted, CD-1 female mice, ranging from 6-10 weeks of age were used in each study. Animals were weighed and grouped according to body weight for preparing dosing solutions based on group average weight. LNPs were dosed via the lateral tail vein in a volume of 0.2 mL per animal (approximately 10 mL per kilogram body weight). […] Body weight was measured at twenty-four hours post-administration, and animals were euthanized at various time points by exsanguination via cardiac puncture under isoflourane anesthesia. Blood was collected into serum separator tubes or into tubes containing buffered sodium citrate for plasma as described herein. […]
(§2) To quantitatively determine the efficiency of editing at the target location in the genome, sequencing was utilized to identify the presence of insertions and deletions introduced by gene editing. […]
(§3) Additional PCR was performed per the manufacturer's protocols (Illumina) to add chemistry for sequencing. […] The reads were aligned to a reference genome (e.g., the human reference genome (hg38), the cynomologus reference genome (mf5), the rat reference genome (rn6), or the mouse reference genome (mm10)) after eliminating those having low quality scores. […]

murine TTR = assay: Liver editing in mice with murine TTR dosed with LNP formulations (Table 29); format: in vivo, mouse; settings: wild type CD-1 mice; 1, 0.3, 0.1, 0.03, or 0.01 mg/kg; FIG. 15A
Experimental: as §1, §2, §3

Molecule | Editing of TTR in livers (HuTTR V30M locus; 8 weeks post treatment) [%] | Share of editing events that were insertions (HuTTR V30M locus; remainder deletions) [%] | Liver editing, dose response (murine TTR)
B1 | 49.4 | 96.8 | 
B2 |  |  | A dose response for both editing and serum TTR levels was evident
